From patent US20260258115A1 (MAPP BIOPHARMACEUTICAL, published 2026)

B1: ADI-14354 (antibody, V domains shown)
VH: QVQLVQSGAEVKKPGSSAKVSCKASGGTFSSYTISWVRQAPGQGLEWMGRIIPFLGIANYAQKFQGRVTFTADKSTSTVYMDLSRLRSEDTALYYCAREPMYYGGDSYAFDVWGQGTTVTVSS
VL: QSVLTQPASMSGSPGHSITISCTGTSSDVGAYNYVSWYQQHPGKAPKLMIYDVSNRPSGVSSRFSGSKSGNTASLTISGLQPEDEADYYCSSFTTSSTRVFGTGTKLTVL
notes: full-length IgG; also called Ab 22
B2: ADI-22764 (antibody, V domains shown)
VH: QVQLVESGPGLVRPSGTLSLTCAVSGGSISGKNWWSWVRQPPGKGLEWIGEIDHSGSTNYNPSLKSRVTISVDKSKNQFSLKLSSVTAADTAVYYCARTGLYDSSGYYLYYFNYWGQGTLVTVSS
VL: EIVMTQSPSSLSASVGDRVTISCRASQTIASYVNWYQQRPGKAPNLLIFAASNLQTGVPSRFRGSGSGTVFTLTISSLQPEDFATYYCQQSYSTPRTFGQGTKVDIK
notes: full-length IgG
B3: ADI-14358 (antibody, V domains shown)
VH: QVQLVQSGGGLVKPGGSLRLSCVASGFTFSDYYMTWIRQAPGKGLEWVSYISGSSAYTIYADSVKGRFTISRDNAKNSLYLQMNGLRAEDTAVYYCARVSWVRSLDSWGQGTLVTVSS
VL: QSALTQPASVSGSPGQSITISCTGSTSDVGLYNYVSWYQLHPGKAPKLIIYDVRHRPSGVSDRFSASKSGNTASLTISGLQAEDEADYYCCSYTSSSTYVFGSGTQLTVL
notes: full-length IgG; also called Ab 26
B4: ADI-14339 (antibody, V domains shown)
VH: QVQLVESGGGVLQPGRSLRLPCEASGFTFNKYAMHWVRQAPGKGLEWVAAVSYDGGNKFYAESVKGRFTISRDNSKNTLYLQMNSLKPEDTAVYYCARDRWELLHGLDYWGLGTLVTVSS
VL: SYELTQPPSVSVSPGQTARITCSGEALAKQYAYWYQQKPGQAPVLVIYKDNERPSGISERFSGSSSGTTVTLTISGVQAEDEADYYCQSADSSGTYVFGTGTKVTVL
notes: full-length IgG; also called Ab 7
B5: ADI-22777 (antibody, V domains shown)
VH: QVQLVQSGAEVKRPGASVKVSCKASEYTFNFHDINWVRQAPGQGLEWMGWMNPKSGNTGYAQKFQGRVTMTRDTSKNTAYLELSSLRSEDTAVYYCARGYGTSWSSDSWWGQGTLVTVSS
VL: SYELTQLPSVSVSPGQTARITCSGDALSKQFVYWYQQKPGLAPMLVIYKDTNRPSWIPERFSGSGSGTTATLTISEVQAEDEADYYCQSVDNSGTYGWVFGGGTKVTVL
notes: full-length IgG
B6: ADI-22780 (antibody, V domains shown)
VH: EVQLVESGPTLVKPTQTLTLTCTFSGFSLSTSGVGVGWIRQPPGKALEWLALIYWDDDKRYSPSLKSRLTITKDTSKNQVVLTMTNMDPVDTATYYCAHRGRQYSYGYYYFDYWGQGTLVTVSS
VL: QSVLIQPASVSGSPGQSITISCTGTSSDVGGYNFVSWYQQHPGKAPKLMIYDVSNRPSGVSNRFSGSKSGNTASLTISGLQAEDEADYYCSSYTSSTLDVFGTGTKVTVL
notes: full-length IgG
B7: ADI-22778 (antibody, V domains shown)
VH: EVQLVESGPGLVKPSETLSLTCTVSGGSINSYSWTWIRQPPGKGLEWLGSFDYSGSNTYNPSLKSRVTIAVDTSKNQFSLKLTSATAADTAVYYCARAPVYDSSGYYLYYFDNWGQGTLVTVSS
VL: DIQMTQSPSSLSASVGDRVTITCRASQSIASYLNWYQQKPGKAPKLLIFAASNLHSGVPSRFSGSGSGTTFTLTISSLQPEDFATYYCQQSYSIRFFTFGPGTKLEIK
notes: full-length IgG
B8: ADI-14371 (antibody, V domains shown)
VH: EVQLVESGGGLVQPGGSLRLSCAASGFTFSNYAMTWVRQAPGKGLEWLSSISGSGGSTYYADSVKGRFTISRDNSRNTLYVQMNSLRVEDTAFYYCAKAFYEYGAGSPGDYWGQGTLVTVSS
VL: DIQLTQSPSSLSASVGDRVTITCRASQSIGTNLNWYQQKPGKAPKFLIYAASSLQRGVPSRFSGSGSGSEFTLTISSLQPEDFATYYCQQSYSTLPITFGQGTKLEIK
notes: full-length IgG; also called Ab 39
B9: ADI-14383 (antibody, V domains shown)
VH: QITLKESGPTLVKPTQTLTLTCTFSGFSLSTSGVGVGWIRQPPGKALEWLALIYWDEDKRYSPSLKTRLTITKDTSRNQVKLTMTNMDPVDTATYYCAHQYYDILTGYPSPGAFDIWGQGTTVTVSS
VL: QPVLTQPASVSGSPGQSITISCTGTSSDVVSYNLVSWFQQHPGKAPKLMIYEVTRRPSGVSNRFSGSKSGNTASLTISGLQAEDEADYYCCAYTGTPVVFGGGTKLTVL
notes: full-length IgG; also called Ab 51
B10: ADI-14352 (antibody, V domains shown)
VH: EVQLLETGPGLVKPSQTLSLICAVSGGSISSGGYSWSWIRQPPGKGLEWVGYISYSGSTYYNPSLKSRVTISVDTSKNQFSLKLNSVTAADTAVYFCARVDGIYSSGMRFDYWGQGTLVTVSS
VL: DIQLTQSPGTLSLSPGERATLSCRASQSVSSYYLAWYQQKPGQAPRLLIYGTSSRATGIPDRFSGSGSGTDFTLTISRLEPEDFAVYYCQQYGRSPLFGQGTRLEIK
notes: full-length IgG; also called Ab 20
B11: ADI-14375 (antibody, V domains shown)
VH: EVQLVESGGGLVQPGGSLRLSCAVSGFTFSNYAVSWVRQAPGKGLEWVSGISGSGGTTYYVDSVKGRFTVSRDNSKNTLFLQLNSLKAEDTAVYYCAKDWGYSGGRPYFDYWGQGTLVTVSS
VL: QSVLTQPPSVSGAPGQRVTISCTASSSNIGPIYDVHWYQQLPGTGPKLLIYGNNNRPSGVPDRFSGSKSGTSASLAITGLQAEDEADYYCQSYDTSLSVVFGGGTKLTVL
notes: full-length IgG; also called Ab 43
B12: ADI-14351 (antibody, V domains shown)
VH: EVQLLESGGGLVQPGGSLRLSCSASGFTFSTYWMHWVRQAPGKGLVWVSRINGDGNDRNYADSVKGRFTISRDNAKNTVYLQMNSLRAEDTAVYYCARGGATGDFYFGMDVWGQGTTVTVSS
VL: SYELTQPPSVSVAPGKTAKITCGGNNIGTKSVHWYQQKPGQAPVLVIYYDTDRPSGIPERFSGSNSGNTATLTISRVEAGDEADYYCQVWDSSNSDHVGVFGGGTQLTVL
notes: full-length IgG; also called Ab 19
B13: ADI-14361 (antibody, V domains shown)
VH: EVQLLESGGGFVQPGGSLRLSCAASGFTFSSYAVNWVRQAPGKGLEWVSLISGSGRTDYTDSVKGRFTISRDNAKNTLFLQMNSLRVEDTAVYYCAKSWGSSGYGYLDYWGQGTLVTVSS
VL: QSGLTQPPSVSGAPGQRVTISCTGSSSNIGPGTDVHWYQHFPGTAPKLLIFGNSNRPSGVPDRFSGSKSGTSASLAITGLQAEDEAYYYCQSYDRTLSASVFGGGTKLTVL
notes: full-length IgG; also called Ab 29
B14: ADI-14360 (antibody, V domains shown)
VH: QVQLVQSGAEVKKPGASVKVSCKASGYTFTTYSMHWVRQAPGQRLEWMGWINAGNGNTKYSQKFQGRVTITRDTSASTAYMELSSLRSEDTAVYYCARDGVGGAYYYGEMDVWGQGTTVTVSS
VL: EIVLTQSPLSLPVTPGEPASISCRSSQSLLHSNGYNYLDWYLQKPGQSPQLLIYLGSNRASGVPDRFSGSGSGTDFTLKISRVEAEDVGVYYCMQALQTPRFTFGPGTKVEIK
notes: full-length IgG; also called Ab 28

Each binder was assayed against T1, RSV postfusion F (postF), subtype A (respiratory syncytial virus subtype A, UniProt P03420 26-513) (assay: BLI, IgG).
T1 construct: also called Postfusion subtype A; F deltaFP

First: B1
Second: B2
The Kd of the first is 3.1-fold higher: 1.04 nM for the first, 0.334 nM for the second. The second binds more tightly here.

B3 and B4 are within 1.5-fold of each other in Kd: 0.656 nM for the first, 0.439 nM for the second.

First: B5
Second: B6
The Kd of the first is 2.8-fold lower: 0.268 nM for the first, 0.739 nM for the second. The first binds more tightly here.

Going from B7 to B8, the Kd rises from 0.209 nM to 1.23 nM (5.9-fold). The first binds more tightly here.

B9 and B10 are within 1.5-fold of each other in Kd: 0.434 nM for the first, 0.448 nM for the second.

B11 and B12 are within 1.5-fold of each other in Kd: 0.477 nM for the first, 0.361 nM for the second.

First: B13
Second: B14
The Kd of the first is 13-fold lower: 0.437 nM for the first, 5.88 nM for the second.

These binders were tested against T2, RSV prefusion F (preF), subtype B (respiratory syncytial virus subtype B) (assay: BLI, IgG).
T2 construct: also called Prefusion subtype B

Going from B1 to B2, the Kd falls from 25.3 nM to 1.42 nM (18-fold). The second binds more tightly here.

Compared with B3, B4 is 34-fold lower in Kd: 60.3 nM for the first, 1.77 nM for the second. The second binds more tightly here.

Compared with B5, B6 is 31-fold higher in Kd: 0.762 nM for the first, 23.8 nM for the second.

Going from B7 to B8, the Kd rises from 4.02 nM to 8.43 nM (2.1-fold). The first binds more tightly here.

Compared with B9, B10 is 3.2-fold higher in Kd: 1.75 nM for the first, 5.54 nM for the second.

First: B11
Second: B12
The Kd of the first is 4.1-fold higher: 3.21 nM for the first, 0.789 nM for the second. The second binds more tightly here.

First: B13
Second: B14
The Kd of the first is 2-fold higher: 52.8 nM for the first, 26.8 nM for the second. The second binds more tightly here.

These binders were tested against T3, RSV postfusion F (postF), subtype B (respiratory syncytial virus subtype B) (assay: BLI, IgG).
T3 construct: also called Postfusion subtype B

Compared with B1, B2 is 4.6-fold lower in Kd: 6.63 nM for the first, 1.44 nM for the second. The second binds more tightly here.

Going from B3 to B4, the Kd falls from 27.5 nM to 0.376 nM (73-fold).

Compared with B5, B6 is 2.7-fold higher in Kd: 0.224 nM for the first, 0.6 nM for the second.

First: B7
Second: B8
The Kd of the first is 2.6-fold higher: 2.77 nM for the first, 1.07 nM for the second.

First: B9
Second: B10
The Kd of the first is 1.5-fold lower: 0.251 nM for the first, 0.383 nM for the second.

Compared with B11, B12 is 15-fold lower in Kd: 3.31 nM for the first, 0.215 nM for the second.

First: B13
Second: B14
The Kd of the first is 31-fold lower: 0.293 nM for the first, 9.03 nM for the second. The first binds more tightly here.
